Laboratory results published in patent CN116041526A.

Target: 重组蛋白SUMO-IgT CH1-CH2 (recombinant grass carp IgT heavy chain constant region CH1-CH2 domains fused to SUMO, from E. coli) (草鱼 (Ctenopharyngodon idella))
Assay: titre of the antibody purified from ascites; assay not given, taken as ELISA on SUMO-IgT CH1-CH2

效价 (titre) (dilution (1:x)): 64000
B1: 鼠抗草鱼IgT单克隆抗体 (mouse anti-grass carp IgT monoclonal antibody, secreted by hybridoma cell line IgT-6H6G11, CCTCC NO: C202288) (antibody, IgG2a, V domains shown)
VH: QVQLVETGGGLVRPGNSLKLSCVTSGFTFSNYRMHWLRQPPGKRLEWIAVITVKSDNYRARYAESVKGRFTISRDDSKSSVYLQMNRLREEDTATYFCSREGPYYGNWVAMDYWGQGTSVTVSS
VL: DVVLTQSPATLSVTPGDRVSLSCRASQSISNYLHWYQQKSHESPRLLIKYASQSISGIPSRFSGSGSGTGFTLSINSVETEDFGMYFCQQSHSWPYTFGGGTKLEIK
